assay: soluble on expression in E. coli; label from the status in PepcDB or PDB records

| Sequence | soluble on expression in E. coli |
| --- | --- |
| MSLSYLPLDEYQRKWIFTHQSMPVPEEDLAQIKPMSQARSAQFWKENISAQSPDMDRLSSQDWPMKESNWSETVDWMAAWESDEPNMPTEVETHIDWQDDVTVYFCYEKYNVIETKWSIFKKHWKNFLFYDDGPMLLGRRRAQALWFDSKGNVKLGERHEGHHHHHH | soluble |
| GPGSMSDVKSKEAGANPAASKSGSGEDVAETKLAVPRSLDTGSKKHPLNSSWTLWYDSLSTYDSERWELSLVEVITVRTVEEFFTMLHYCKPPHVLRVSAQYHFFREGVKPMWEDPSNKAGGKLWISLDDKPVGDVGGRKWENANTGGAAGGEKDNASAATNNSNSNQNAKAKKEEQETEKKPELDTMWENLLMAMVGEYLDPEPDGDHIMGLVLSRRKYHNRIALWLRDASASEAVARIEKKLVKEAGLPPAMKFIFTPHSTGK | soluble |
| MSLTHSTMHPYISLLDNEIYTHQGKEVITNMYNIIEKNLTLNLIANNVQYHPNQKTISFTHPSITIFNNKNIAIWYITCNQAQLYHQKKTLNLHGQVFINQIVKKICTQSIITNQLLIDLNNQSIISNNKTIIHGHYFYSIGSCMNINLHTQTTTLFGKIYTQYEIQNMEGHHHHHH | not soluble |
| ASPLMSRTPAFERAAALARAKSAALHIVAFDYVEGLAAAGLLNERALNEMRDGYLASHRQWLEQQAQLIRQSGVEVTTEVVWVMRPLDEIMAHVHEIKPSMVIKDIGHESWLTRAMFTSLDIRLLHDCPVPLHLVANVDH | not soluble |
| MATASHNIDDILQLKDDTGVITVTADNYPLLSRGVPGYFNILYITMRGTNSNGMSCQLCHDFEKTYHAVADVIRSQAPQSLNLFFTVDVNEVPQLVKDLKLQNVPHLVVYPPAESNKQSQFEWKTSPFYQYSLVPENAENTLQFGDFLAKILNISITVPQAFNVQEEFHHHHHHHHHH | soluble |
| MNINILLSTYNGERFLAEQIQSIQRQTVNDWTLLIRDDGSTDGTQDIIRTFVKEDKRIQWINEGQTENLGVIKNFYTLLKHQKADVYFFSDQDDIWLDNKLEVTLLEAQKHEMTAPLLVYTDLKVVTQHLAVCHDSMIKTQSGHANTSLLQELTENTVTGGTMMITHALAEEWTTCDGLLMHDWYLALLASAIGKLVYLDIPTELYRQHDANVLGARTWSKRMKNWLTPHHLVNKYWWLITSSQKQAQLLLDLPLKPNDHELVTAYVSLLDMPFTKRLATLKRYGFRKNRIFHTFIFRSLVVTLFGYRRK | not soluble |
| MGAQVSTQKTGAHETGLRASGNSIIHYTNINYYKDAASNSANRQDFTQDPGKFTEPVKDIMVKSLPALN | soluble |
| MSLNHSVRKCGYLRKQKHGHKRFFVLRGPGAGGDEATAGGGSAPQPPRLEYYESEKKWRSKAGAPKRVIALDCCLNINKRADAKHKYLIALYTKDEYFAVAAENEQEQEGWYRALTDLVSEGRAAAGDAPPAAAPAASCSASLPGALGGSAGAAGAEDSYGLVAPATAAYREVWQVNLKPKGLGQSKNLTGVYRLCLSARTIGFVKLNCEQPSVTLQLMNIRRCGHSDSFFFIEVGRSAVTGPGELWMQADDSVVAQNIHETILEAMKALKELFEFRPREGHHHHHH | soluble |
| MGSDKIHHHHHHMENKEVIIIGAGAAGVGMGVALKDFGINNFAILERKQVGNSFIKWPEQTRFITPSFTSNGFGMPDLNAIAIDTSPSYTLGEERLSGKDYAKYLQLVSEEYKLPIKTNCKVQSIKKEKTGYLLETTKGFIYAEYVIFAMGEFSFPNKSSIKGAYKNSLHYGEINSWIEIKGDKQTIIGGNESAIDAAIELAKLGKRVTIYTDTLGLNIRDADPSKRLAPRTRQRFFDLRVNQKKLDSIKIYTTTKVKKIEKKSTSYILITENGKSLPVENIPILCTGFKNGTKSITASLFKYKENGEVLLNDFDESTIAKNIFLTGPNVRKGNTIFCYIYKFRQRFAVIANEIARRKHITIDEKKLSYYKNQSFYLDGCSGCEVRCSC | not soluble |
| MQLPLSYWIESTQFPTFPRLSENIKTKVAIIGAGITGITTAYLLAKEGIDVVLIDSGRILNGTTGHTTAKVTAQHDLIYDELINHFGVEKARLYYESNNQALQFINKTVQTYKIDCNFSNEDSYLYTTTDNGLRNLSKEYEAYQKLNIPCDYVQSLSIPIPVQSALVMKNQAQFHPLLYLKTLLEKFVEMGGKVYEQTTAMDVEKGDYSQIITKEGHHITCEYVVSCSHFPFYDANSFFFTRMYAERSYALAIKAKTEYPGGMYLSIDDPKRSLRYITNNGEKLILIGGESHKTGQGINTMLHYEALYSFAEATFGIDEVSYRWSAQDLITLDKLPYIGHINERNPNIFVATGYRKWGMTTGTAAAHLLKDSILKVHSPYKELYAPSRFHANPDIKTFLSQNIDVAKHLIAGLEHHHHHH | not soluble |
| MASEVPQVVSLDPTSIPIEYNTPIHDIKVQVYDIKGGCNVEEGLTIFLVNNPGKENGPVKISSKVNDKQVSEFLKDENMEKFNVKLGTSKHFYMFNDNKNSVAVGYVGCGSVADLSEADMKRVVLSLVTMLHDNKLSKLTVVFEINVDKNLFRFFLETLFYEYMTDERFKSTDKNVNMEYIKHLGVYINNADTYKEEVEKARVYYFGTYYASQLIAAPSNYCNPVSLSNAAVELAQKLNLEYKILGVKELEELKMGAYLSVGKGSMYPNKFIHLTYKSKGDVKKKIALVGKGITFDSGGYNLKAAPGSMIDLMKFDMSGCAAVLGCAYCVGTLKPENVEIHFLSAVCENMVSKNSYRPGDIITASNGKTIEVGNTDAEGRLTLADALVYAEKLGVDYIVDIATLTGAMLYSLGTSYAGVFGNNEELINKILQSSKTSNEPVWWLPIINEYRATLNSKYADINQISSSVKASSIVASLFLKEFVQNTAWAHIDIAGVSWNFKARKPKGFGVRLLTEFVLNDALHHHHHH | soluble |
| GVFTFEDEINSPVAPATLYKALVTDADNVIPKALDSFKSVENVEGNGGPGTIKKITFLEDGETKFVLHKIESIDEANLGYSYSVVGGAALPDTAEKITFDSKLVAGPNGGSAGKLTVKYETKGDAEPNQDELKTGKAKADALFKAIEAYLLAHPDYN | soluble |
| MTWQVQRRKWKLNLIAELESRVLAEPVPLPADPMELKNLEYRPVKVRGCFDHSKELYMMPRTMVDPVREAREGGLISSSTQSGAYVVTPFHCTDLGVTILVNRGFVPRKKVNPETRQKGQIEGEVDLIGMVRLTETRQPFVPENNPERNHWHYRDLEAMARITGAEPIFIDANFQSTVPGGPIGGQTRVTLRNEHLQYIVTWYGLSAATSYLWFKKFLRGTPGV | not soluble |
| MQVLLLEDEPRLGQAVARALAAQGYGVRWARSLGEAREAFLELEPDLMVLDVRLPEDEDGGFRFAKEAREAGYKGPILFLTARDALEDRVQGLDLGGDDYLVKPFHLEELLARVRALLRRASEVKASRVRLGPLEVDLAGRGVYLAGRRVDLSLKEFALLETLLLHPGRVFAPEELAERVFGDPEKVGAVKVYVHYLRQKLFPEVVRTVPGGYRLGHEP | soluble |
| MGLLAHFLKGPHKKTTLLLTRAGPVENPRHVLYSHPGLPLSPKGRSALLALLPLLQGFPVAHVYAADSLAEAEAARLFAEALGVPYTLLPELRERAWGAWEGLSFPEVEARFPGAVAAWTADEAGFAPPGGESVREAWERGRRAVKALLGKHRGQAILVVGNCTLNRAALSLALPLPPEEGLRLEQDYARLSVVDFYGEEGVVKALNLAVDWGHDPARGPQGPPGAS | soluble |
| MNCREGCGACCIAPSISTPIPGMPQGKPAGERCLHLSVEHLCGLFGLPERPAVCGAFLADPEVCGESREEAIRLIGWWEQVTAALEHHHHHH | not soluble |
| MEQLGSEPETYQIMKTIEKSIIENDNVDLEQYLLFWEHVCNVMCSWGTIFSFVVKDVTAKLEKLTQMRSSDPDSYRTIIGMATKESENGTIRNQKPNRSGTGHLMVLNRALEFVIDLLDGVFTSNDENVSTIARSSYDKHLSQLHSWPIRTAVAAALYTLPRKPEFLCRLRGDMPEDDDNQFHDIFNRDGRDIVRRVNKLVENFELTDYNPSA | not soluble |
| MGSDKIHHHHHHMRQTFIARKISFISLIHFRDEYMSPQNNHLQRPPAAVLYADELAKLKQNDNAPCPPGWQLSLPAARAFILGDSAQNISRKVVISPSAVERMLVTLATGRGLMLVGEPGTAKSLLSELLATSISGDAGLTIQGGASTTEDQIKYGWNYALLINHGPSTEALVPAPLYQGMRDGKIVRFEEITRTPLEVQDCLLGMLSDRVMTVPELTGEASQLYAREGFNIIATANTRDRGVNEMSAALKRRFDFETVFPIMDFAQELELVASASARLLAHSGIPHKVPDAVLELLVRTFRDLRANGEKKTSMDTLTAIMSTAEAVNVAHAVGVRAWFLANRAGEPADLVDCIAGTIVKDNEEDRARLRRYFEQRVATHKEAHWQAYYQARHRLP | not soluble |
| MAHHHHHHMSGSVNRSNSFQKADSMDAKETSTVDRKWVALTAYQPVDVVTKTVEVPVIKTVEKFVPKTIIQEKIIHVPKNVTHIVEKIVEVPEVKYIEKIVEVPHIHYKNKYVPKIEVVEKVVERQKIIEKWHDKIVEVPQIKEVVRFKEIEDAEEVIKYIPRNSKNINWEEEYQKYTQRKGQERYSLDNNAYQQKMSSYNDYNEKAYSQNAYSRSLDFMNKQSSSLNNQSNIRSEDFSQINFFNQYIGSAGASYDKQRNSVPTSSFDARGSLQLKRMPSEEAKPVGCCTSACT | not soluble |
| MDTPSLTPWLSIVGISEEGWLALTPIAQQCILQADILVGSDRHFDLLPSLPGAEQWRWGSPFSATITQILERRGQSICILASGDPMCYGVGSLLAQRLPLTELQILPAPSAFSLACSRLGWALPEVETLSLCGRDPALLNALLYPGAKILALSADRSTPATIAEQLCQQGWGSSRLTVLEHLGGPKERKISEIAEHWSQPTIASLNTVAIECHARDRDLIVPPRLTGLPDAAYHHDGQLTKREVRAITLAALAPLPGQLLWDVGAGCGSIGIEWMRSDRRCRAIAIEQHPQRLQIITQNAIALGVPNLQVVAGSAPATLSGLPQPDAIFIGGGVTAPGVLDQCWQALPMGGRLVVNAVTLESEQVVLAGQQRWGGDLIRVAVQRAEPIGRFLGWKSLAPITQWTVKKTALEHHHHHH | not soluble |
| MSTHLLHALWLKNSGLHLWIEQVEGHKIVLSDAVPDNTFPDSVATLIRGKRFTHQVKTKLLTPKGREVTLQLPTIAFTPEQAVRVLSQIAAITPMMASSAQRATLAPDLMWMVRLYQGLEQFVRAGRLTIKLGYADHQWWPTWQLSSGLQERGWIAQMTAAAPGVLIANAGSSVAEDIADELPHWIANFLLQDLLDTPRSSEWHSFPEALMRSTPLRRGTAQLVSALNEWRDSMTSVSVQLVFIVEEPSKDREDRIDPADMLWPIRVRVRSGVDSPQPIMLSHYDSATKERLNALRREAILVAPILEKQGTDSNVTPTQLFELQREEGAGDWDCYVTTDQLVEFIGDAAARLKSRGFNVLLPRSWDQQETKAHLRLSDPAEASTQATIGLDKIVDYDWHMSVGDIELTEAEMVELVRSKSGLIHLRGEWVMADTAAIRRIGDYMKDVAAQSRKRKKQALDTAVMEAELAKANDDPRWPMLEARAEKLAEEFNNEFAEFGQVTLAELRELALKAQENEPIAYTGSPWHASLAGGSMGKDSPAPQRVSI | not soluble |
| SNAMGKKIRTEEVDHLFEAILCLKNKEECYTFFEDVCTINELLSLSQRFEVAKMLTDKRTYLDISEKTGASTATISRVNRSLNYGNDGYEMVFSRMKEKETAGKTEE | soluble |

Reference: the DeepSol protein solubility set
